Experimental data taken from US20020132350.

Molecular target: MuA transposase (Bacteriophage Mu) (UniProt P07636)
Test: cell_activity

Chain of MuA transposase (Bacteriophage Mu) (P07636 whole entry): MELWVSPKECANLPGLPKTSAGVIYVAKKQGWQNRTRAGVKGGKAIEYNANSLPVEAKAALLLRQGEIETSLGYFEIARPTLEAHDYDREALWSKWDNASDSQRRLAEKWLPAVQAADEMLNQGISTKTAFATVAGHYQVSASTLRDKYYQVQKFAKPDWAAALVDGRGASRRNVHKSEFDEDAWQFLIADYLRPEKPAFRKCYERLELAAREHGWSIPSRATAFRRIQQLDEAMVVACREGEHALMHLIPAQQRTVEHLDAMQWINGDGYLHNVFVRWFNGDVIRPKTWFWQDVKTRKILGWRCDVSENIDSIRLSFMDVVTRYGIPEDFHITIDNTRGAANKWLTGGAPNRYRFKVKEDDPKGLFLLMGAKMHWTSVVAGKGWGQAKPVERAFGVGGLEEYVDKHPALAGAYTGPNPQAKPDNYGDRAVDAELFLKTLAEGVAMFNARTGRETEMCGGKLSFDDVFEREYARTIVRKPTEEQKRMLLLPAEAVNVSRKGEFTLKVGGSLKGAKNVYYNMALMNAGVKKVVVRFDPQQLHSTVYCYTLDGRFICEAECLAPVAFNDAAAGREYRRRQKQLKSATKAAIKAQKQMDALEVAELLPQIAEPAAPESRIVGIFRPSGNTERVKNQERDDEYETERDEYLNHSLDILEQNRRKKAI

Substance: PC-4 SpeI/BglII fragment (precleaved mini-Mu, inverted R1-R2-R3 ends flanking CAM)
- activity (induced MuA (0.5 mM IPTG), replicate 204, uninduced 1 and 3): 240 colonies
- activity (preformed CDC (25 mM HEPES pH 7.6, 130 mM NaCl, 10 mM MgCl2, 15% DMSO, 15% glycerol, 30 C 1 h) electroporated into E. coli, 16 blue, 4 white, fragment without …): 20 colonies

Substance: PC-4 SpeI/BglII fragment with attached lacZ-100 ssDNA navigator
- activity (same conditions, 26 blue, 5 white): 31 colonies

Substance: PC-4 fragment with lacZ-100 navigator via biotin/streptavidin
- activity (biotin/streptavidin bridge, induced MuA, uninduced 0): 58 colonies
